Results taken from article PMC12797016.
Several values for one entry are separate records, joined by “and”; a condition that tells them apart may be missing. Equal values may be shown once.

How the values were obtained:
[1] = target: LC8 (dynein light chain, DYNLL1/DYNLL2) (Homo sapiens) (UniProt P63167); assay: ITC; conditions: cited from earlier work
[2] = target: LC8 (dynein light chain, DYNLL1/DYNLL2) (Homo sapiens) (UniProt P63167); assay: ITC; conditions: cited from earlier work; remark: listed apart in the source
[3] = target: LC8 (dynein light chain, DYNLL1/DYNLL2) (Homo sapiens) (UniProt P63167); assay: ITC; conditions: cited from earlier work; remark: listed apart in the source
[4] = target: LC8 (dynein light chain, DYNLL1/DYNLL2) (Homo sapiens) (UniProt P63167); assay: ITC; conditions: cited from earlier work; remark: listed apart in the source
[5] = target: LC8 (dynein light chain, DYNLL1/DYNLL2) (Homo sapiens) (UniProt P63167); assay: ITC; conditions: cited from earlier work; remark: listed apart in the source
[6] = target: LC8 (dynein light chain, DYNLL1/DYNLL2) (Homo sapiens) (UniProt P63167); assay: ITC; conditions: cited from earlier work; remark: listed apart in the source
[7] = target: LC8 (dynein light chain, DYNLL1/DYNLL2) (Homo sapiens) (UniProt P63167); assay: ITC; conditions: cited from earlier work; remark: listed apart in the source
[8] = target: LC8 (dynein light chain, DYNLL1/DYNLL2) (Homo sapiens) (UniProt P63167); assay: ITC; conditions: cited from earlier work; remark: listed apart in the source
[9] = target: LC8 (dynein light chain, DYNLL1/DYNLL2) (Homo sapiens) (UniProt P63167); assay: ITC; conditions: cited from earlier work; remark: listed apart in the source
[10] = target: LC8 (dynein light chain, DYNLL1/DYNLL2) (Homo sapiens) (UniProt P63167); assay: ITC; conditions: cited from earlier work; remark: listed apart in the source
[11] = target: LC8 (dynein light chain, DYNLL1/DYNLL2) (Homo sapiens) (UniProt P63167); assay: ITC; conditions: cited from earlier work; remark: listed apart in the source
[12] = target: LC8 (dynein light chain, DYNLL1/DYNLL2) (Homo sapiens) (UniProt P63167); assay: ITC; conditions: cited from earlier work; remark: listed apart in the source
[13] = target: LC8 (dynein light chain, DYNLL1/DYNLL2) (Homo sapiens) (UniProt P63167); assay: ITC; conditions: cited from earlier work; remark: listed apart in the source
[14] = target: LC8 (dynein light chain, DYNLL1/DYNLL2) (Homo sapiens) (UniProt P63167); assay: ITC; conditions: cited from earlier work; remark: listed apart in the source
[15] = target: LC8 (dynein light chain, DYNLL1/DYNLL2) (Homo sapiens) (UniProt P63167); assay: ITC; conditions: cited from earlier work; remark: listed apart in the source
[16] = target: LC8 (dynein light chain, DYNLL1/DYNLL2) (Homo sapiens) (UniProt P63167); assay: ITC; conditions: cited from earlier work; remark: listed apart in the source
[17] = target: LC8 (dynein light chain, DYNLL1/DYNLL2) (Homo sapiens) (UniProt P63167); assay: ITC; conditions: cited from earlier work; remark: listed apart in the source
[18] = target: LC8 (dynein light chain, DYNLL1/DYNLL2) (Homo sapiens) (UniProt P63167); assay: ITC; conditions: cited from earlier work; remark: listed apart in the source
[19] = target: rGKAP_(655–711), LC8-binding segment of Rattus norvegicus guanylate kinase-associated protein (GKAP), His tag removed (Rattus norvegicus) (UniProt P97836); assay: dynamic light scattering; particle size of GKAP, LC8 dimer and their complex at 20 °C; W130i DLS device
[20] = target: 6xHis-tagged rGKAP_(655–711) (Rattus norvegicus) (UniProt P97836); assay: BLI; 6xHis-tagged rGKAP655-711 immobilised on Ni-NTA biosensors (5 ug/mL, 90 s); LC8 dimers 3.125-50 uM, association and dissociation 90 s each; kinetic buffer 50 mM sodium phosphate, 20 mM NaCl, pH 6.0, 20 mM imidazole, 0.1% BSA, 0.02% Tween 20, 0.02% NaN3; sensors hydrated at 25 °C; global fit; BLItz
[21] = target: LC8 (dynein light chain, DYNLL1/DYNLL2) (Homo sapiens) (UniProt P63167); assay: ITC; conditions: cited from earlier work; remark: listed apart in the source
[22] = target: LC8 (dynein light chain, DYNLL1/DYNLL2) (Homo sapiens) (UniProt P63167); assay: ITC; conditions: cited from earlier work; remark: listed apart in the source

Sequence of UniProt P63167 (P63167 whole entry): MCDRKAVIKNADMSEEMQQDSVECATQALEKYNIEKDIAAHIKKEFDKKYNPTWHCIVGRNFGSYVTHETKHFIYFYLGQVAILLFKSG

| Substance | Kd [1] | other results |
| --- | --- | --- |
| 53BP1 | 1 µM | Kd [2]: 0.62 µM; Kd [3]: 5.2 µM |
| AKAP9 | 12.4 µM |  |
| ALMS1 | 19.2 µM |  |
| AMOT | 1.2 µM |  |
| AMOTL1 | 1.55 µM |  |
| AMOTL2 | 1.98 µM |  |
| ASCIZ | 20 µM | Kd [4]: 15 µM; Kd [5]: 36 µM; Kd [6]: 9.3 µM; Kd [7]: 15 µM; Kd [8]: 7 µM; Kd [9]: 10 µM; Kd [10]: 14 µM; Kd [11]: 11 µM |
| Bim | 0.52 µM |  |
| CDK5RAP2 | 12.5 µM |  |
| CEP152 | 2.37 µM |  |
| CFAP91 | 0.55 µM |  |
| EML3 | 0.05 µM |  |
| GKAP | 2.4 µM |  |
| IC | 3 µM |  |
| IQUB | 3.57 µM |  |
| Kib1 | 0.45 µM |  |
| Kib2 | 4 µM |  |
| L-MAG | 7.3 µM |  |
| LCA5 | 2.6 µM and 8.1 µM |  |
| MAP4 | 4.42 µM |  |

| Substance | Kd [1] | other results |
| --- | --- | --- |
| Myosin Va | 8.85 µM |  |
| NEK9 | 0.16 µM |  |
| NUP159 | 1 µM |  |
| OFD1 | 12.5 µM and 12.8 µM |  |
| Pak1 | 42.7 µM |  |
| Restv | 62.1 µM |  |
| SAO-1 | 0.5 µM | Kd [12]: 0.5 µM |
| Sudv | 6.45 µM |  |
| Swa | 0.62 µM |  |
| WWC1 | 4 µM | Kd [13]: 0.45 µM |
| WWC2 | 32.7 µM | Kd [14]: 17.6 µM |
| WWC3 | 5.34 µM | Kd [15]: 3.5 µM |
| ana2 | 12.8 µM | Kd [16]: 1.14 µM |
| bmf | 0.79 µM |  |
| dyn intermediate chain (ICTL) | 0.5 µM | Kd [17]: 8 µM; Kd [18]: 8 µM |
| dynein light chain LC8 (DYNLL2, DLC2), Rattus norvegicus, dimer (natural protein) |  | stoichiometry N (LC8 dimers per GKAP segment (2 : 2)) [19]: 1; Kd [20]: 0.29 µM; koff [20]: 0.0025 s⁻¹; kon [20]: 8800 M⁻¹ s⁻¹ |
| myosin Va | 9 µM |  |
| nNOS | 5.41 µM and 7 µM |  |
| protein panoramix | 0.14 µM | Kd [21]: 0.075 µM |
| vp35 virus | 3.91 µM | Kd [22]: 3.91 µM |
